Measurements: the DeepSol protein solubility set

experiment: soluble on expression in E. coli; label from the status in PepcDB or PDB records

Row | Sequence | soluble on expression in E. coli
1 | MEIALERIYGHRLALPQVGAALLFAQEAPPALLLVPEARLRRYRDLSAFGAKVYVNPGLEALEEKALFVLSYEEALSPFPEDPEAWRLLLEVGRAYPREALLSRLLKLGYARDEDYRVLGEVVELGEVRLEFFGDELERLVVRGEERRRHVLLPKPGKAEGFTSKKVLHFPGPVYLDTPALAPKALWPLLAGRPWVALGGGVELPPLELGARPLPPYRGSLKALEKDLARWLAEGKRVHLFVGHARTLEYLKRRLQAFSPLILDRFPGPKGRLALLPGDFEGGAEWGEWVLLTEALVFATGGVRARVRVGEGLSDPGALSPGDYLIHPEHGVGQYLGLETREVLGVKRDYLVLRYKGEGKLYLPVEQLPLLKRHPGTTDDPPELSSLGKNEWQRAKERARKDVEELAGRLLVLQAKRKATPGRAFPPLPEWDPLVEKGFPYELTPDQKRALEEVLRDLESPHPMDRLVSGDVGFGKTEVALRAAHRVVGHGAQVAFLGPTTLLAEQHGKTFRERFQGLPVRVAVLSRFTPPKEEEAILKGLAEGTVDIVIGTHRLLQEDVRFRDLGLLIVDEEHRFGVAQKERIRELKAEVDTLYLSATPIPRTLYSALVGLKDLSSIQTPPPGRKPIKTFLAPFDPLLVREAILFELERGGKVFYVHDRVASIEARRRFLENLVPEARIGVVHGQMPESLIEETMLLFAEGAYDVLLATTIIEAGLDVPEANTILIERADRLGLATLYQLRGRVGRREEEAYAYLFHPPRLTEAAEKRLAAIADLSDLGSGHLLAERDMEIRGVGNLLGPEQHGHIRALSLEVYTELLEEAIRKLKGEAKEERRHVTLDLALSARLPAEYVGSLEARSRYYSRFAEAKSLAELSRLVRELKERYGPLPEEAENFVALARLRLVAERKGVVSITEGLTHLEVVFPRYPLDYDARGLKGLPYRVELTQYPPGFRLEKKGLRPRDYPEALMEVLYLFADL | soluble
2 | MSLELPAEVQEMPIYREWISGILAGKIASPFWEMAQPQKNQHCLDIGCGVSFLIYPWRDWQAFFYGQDVSNVARDTLNSRGSQLNSKLFKGVELGAAHQLKYTLSYFDLAIATGFSCYFPLEYWTSVLQAVKRVLKPDGHFVFDILNAAHPQAEDWAVLETYLGAEVFLEPVTEWEKIINAAGAKVVGRQPGEFFDLYKLRLEHHHHHH | soluble
3 | MSGAAKRVATSSVNWSKLAERLVPEHAAELTRVKGVSGTFQSAVSQLPADLPKIDFAALKKALPAHSAVLDSLQKQYESVKIPYGEVPAEYLKEVDQWVDYNNARIKLHEVKVADGLQEAKKVEEKWAKAPPVEHFDRQHFVEYFPAHFYDLRYQNRIPDPCNIGLNETPEIENRFKDYKVLRRADKVDDH | not soluble
4 | MSLEQLLGRGEAAPSVRYDETIQKIIPIIKNSIRLPDDLRDRKTIWEFIRPQLMGIKALEAGFSMALWDWWGQKIGRPIFELLSVKTKMLPQTSYTISIGGFDELGAKLEEAKPYSILKVKLGTPKMDKEIITEIRRHTEKLIRVDANEGWTEDVALEMSFWLADRNIEFIEQPFPAKDLNSSIELKKKSPLEIFADENSLNSNDIKPIRHAFHGINIKLMKCGSLEEGKKMIDVARENGLKVMLGCMVETSVGITSASHLAGEVDFVDLDGNLLIKNDPYSGVLVNNGRLVLQKGNGSGVKLSSDYRNILEEGHHHHHH | soluble
5 | APLKLYGMPLSPNVVRVATVLNEKGLDFEIVPVDLTTGAHKQPDFLALNPFGQIPALVDGDEVLFESRAINRYIASKYASEGTDLLPATASAAKLEVWLEVESHHFYPNASPLVFQLLVRPLLGGAPDAAVVDKHAEQLAKVLDVYEAHLARNKYLAGDEFTLADANHASYLLYLSKTPKAGLVAARPHVKAWWEAIVARPAFQKTVAAIPLPPPP | soluble
6 | VDEKALKHITEMGFSKEASRQALMDNGNNLEAALNVLLTSNKQKPVMGPP | soluble
7 | MTVITEPARQTPVIHNTDVLVVGSGPGGLAAALAAARAGVDVCLVERFGCFGGNITVVGVEGFAWYRHEATVEAGGIGREFEDRAREMGAAVPESQSLSYEIDSEGFKLVADRLVEEAGVHGMLHRQFVAPVMEGDRVAGIIVESKAGREAILARVVIDATGDADVAHRAGAPTLKTPAEHMQAASVMFHLAGVDKAAFMAEVRRDPQTYKDWSTGEWTVETDGKEDDMFSPFLKKPFAKAIEEGVIPPHLNTIAGTWGAMHDTGELTYMNLVHLAGVDGTDPDSLTQGEIEGRRQAMLAIEALRRFMPGCGGVRLRNFGMTIGIRDTRKIRAAYDMTETDVRQQGRFDDSIGIYPEFIDGYGVLIIPTTGRYMQIPYRAVLPGKVKGLLVAGRAIGGDRIAHAATRNMACCAVAGQGAGVAAALAVKTGCDVAQVDMAGVQAELLRQGVRIALEHHHHHH | not soluble
8 | MPRSDGFSPRKNLRRSARDHSRSYAGQCNEDFDDMYAPSSRRRSSGGVDGNGYTRSGRKINHNRYYEEEYHEAISSEEDERRYRTRRSSNSMTYRQQVMQAIDESKRNQKVPPAKRKRIYLSDEEEEDFAEAAHVENTVPERATRRSTRRRSSMHEELGVSEQEESPVRRTRKAAKRLGSEQPEENLAADDPLPMEGGGEIVLPIAEIDGMAEQENEDLIEKIGREEEEEGAEEDEQSGEKDPEEEEDDSSNAESSEESTAPRQYSLRRRQPVVQFNASEARENRRARLEHHRVANQNRHHRNRNGSRRRRSDSDSDSDDMVLPRPDKRQSRPHMHNRGERERGRFMPINMTEKELQSAQHILMDRMRKTDAGQGASDIDPMSVDSSVGFDQVGGLGHHIQSLKEVVLFPMLYPEVFEKFRINPPKGVVFYGPPGTGKTLVARALANECRRGANKVAFFMRKGADCLSKWVGESERQLRLLFDQAYAMRPSIIFFDEIDGLAPVRSSKQDQIHASIVSTLLALMDGLDGRGEVVVIGATNRLDTLDPALRRPGRFDRELRFSLPDLNARRQILDIHTSKWEENKPIPETLDAIAERTSGYCGADLKFLCTEAVLIGLRSRYPHIYMCSERLKLDVATIKITSEHFGHAMRRITPASRRDLTIPSRPLDERTSILLGDTVSNLISLRIPQGYRCVENAMATASSELEQVVRALEPNPTVPAIRLLLCGSEQLADGGQTSYVLPAILAKLDHLPVFSLSVSSLLTDGRPEEAFSNAIQSAMRASATGPCIMLLPSIDEWIKVIPVSVQHMLITCLESMTGFTPILFLSTLDTSFEDAPEYVTEIFRHANCITLNPSRRTIRQKYFEHVIEKINTPPKVFDPRLMRDRRFVEFVEPVDPDEAEDYYEIIETPICMQDIMEKLNNCEYNHADKFVADLILIQTNALEYNPSTTKDGKLIRQMANTLRDAIDDLIECELDESFVERIETVSRMLQDAGVTPTSDKLLTEIPKGFARKKAWSMTNSLAKEIEQWTSEREAENQKMLSKLGVAAPTLELVVVPVEDMKSEEGTSTSTDGVPASAGNKKKLLKKKKGQKKSKTGESEEHDEDSTVEDAGEDTIVENLEIKKNQETPNSEHDIEMKDASKDSTPSVQISIAEKELIVSKPATCELIQCCVEKSEGWSVSELERLSSVLSHTIERFRDEWNRENLPAQLTQIVREWQTADDSNNTIVNGTLNKSNGNLANGH | not soluble
9 | MSLGEVCEIMQAYGGVSIVNALPSWYGSSMAINLKVKVEIREGKRVYSQESELIKTILNYFKEKYSIPDIEVDIESELPQKSGLKSSSAVSVALIAEIAKQYDLRNINPPILSAILSLKAGVSYTGALDDAVASYCGGIAFTYNKMFRIVKLENLEDNLSILILAKGGRQKPVNLNELRKYSHVFEEIFKIALKDYLTAMKMNGILIANILGYSLEPIEIALKKGALAAGISGNGPSYFAVSKNGEEGPIYESLKKFGDVIIVRPVSLDCKDLSIKEGHHHHHH | not soluble
10 | MAWLNPFWSSPKAYVRPPKRGLAPELWASRIPFTHLENFYEVFRALWENRDNLPYAWRILKDGVCDGCALGTSGLEDWTLHGVHLCNVRLRLLSLNTLPPLDPKVLKDVEALKGRKSRELRRLGRLPYPMLRRKGERGFRRVSWDEAMGLATEYLRRHLPEGAFFYLTSRGVPNETYYVVQKAVRALGCNHVDNAARICHSPSTVVLKEALGVAATTCSYTDLIGTDLVVFLGSNVANNQPVMMKYLYHAKKAGTKVAVVNPYREPGMERYFVPSDLESALFGTRIADRFFQILPGGDIAFLHGAAKWMLEEGWVDPGFIRAHTAGFEAYKALLEAIPFAELEKAAGVSREEMRAFAEMVGRAERAVFVWGMGITQHTHGEDNVRAIVNLALLKGFVGREGCGLMPIRGHSGVQGGAEMGAYATAFPGGLPVNPENARRLAELWGFPVPDRPGLTTPEALDRALEGRLGVLWAIGGDFREVMPDPEAVEEALRRVPLRVHQDIVLSSQMLLEPGECVLLLPATTRYEVPGGVTETSTERRVIFSPEIPGPRPPEARPEWEVFQELVHRLRPELKDRFRFASTAEIREEIARVIPLYEGIQRFKAKGDQFQYGGRRLCEGWRFPTPDGKAHFRPVPLPQKEVPEGAFRVVTRRGKQFNSIVHEDQDPLTGAFRDAVYMNPKDAARLGLKPGDPVVLENAFGRYAGRVYLAEVKEGTLEVHWPEGNVLVDPKARSPLAHIPAYKEILAHLRRGEAEAPSPLRP | soluble
11 | MDYKDDDDKLVDSLRACVFDAYGTLLDVHSAVMRNADEVGASAEALSMLWRQRQLEYSWTRTLMHQYADFWQLTDEALTFALRTYHLEDRKGLKDRLMSAYKELSAYPDAAETLEKLKSAGYIVAILSNGNDEMLQAALKASKLDRVLDSCLSADDLKIYKPDPRIYQFACDRLGVNPNEVCFVSSNAWDLGGAGKFGFNTVRINRQGNPPEYEFAPLKHQVNSLSELWPLLAKNVTKAA | soluble
12 | MKPKLAQWKELLAARHKKENDEEKEEEKPDGRPVTDVPYADVWREYGAKPYWFAGDYCLIRETVYPLDYQHGRYRLGALYEVHERWQEAPFSHPLSCRGFAVRDLFFFDTETMGLSSGAGNIMFLLGHARILGDFVTIRQHLLPYPGAEVALYQSFLSDVDYTTLVTYNGKAFDWPRLKTRHALVRNMVPKLPAFGHFDLYHAARRLWKDKLDSLRLSEVERHILHVERGDDVPGFLAPMMYKEFLQTPHPDRLMPVLRHNERDVLSLIALYIHLSVQLLEADRLADPKEQLAAARWFEAVGETAAARGVYEEASGKGAKEAQAAKWQLSLLYRKEKRYEEAALLWRDLLIHGNGYWKAKAGLELAKVYEHYFRDAAEAHRYAVMAYEAWRSLARMSRQHSEKEEAEWRRRLARLERKKNG | not soluble
13 | MSLPKEEILTGPAVIKIVSTYMGPEHVELVQKALTYAEKAHEGQVRQSGEPYIIHPIQVAGILAELHMDPHTVATGFLHDVVEDTDVTLDDLKEEFGEDIAMLVDGVTKLGKIKYKSHEEQLAENHRKMLLAMAQDLRVIMVKLADRLHNMRTLKHLREDKQRRIAQETLEIYAPLAHRLGISRIKWELEDTALRYINPNQYYRIVNLMQSKRDEREAYVAEAVEDIRLATEDLEIYAEIYGRPKHIYSIYRKMKDQKKQFNEIYDLLAIRVIVDSIKDCYAVLGAIHTRWTPMPGRFKDYIAMPKANMYQSIHTTVIGPKGNPVEVQIRTHEMHQIAEFGVAAHWAYKEGKAEKIETDELTKQVDWFHEIIELQDESYDASEFMQGVKEDIFSDKVYVFTPSGDVTELPKGSGPLDFAYSIHTEIGNKTTGAKVNGKMVQLDYVLKNGDIIEVLTSPNSFGPSRDWLKMVKTSKAKNKIKRFFKEQDREDNIIKGHDAVIKYMTEIGFTPKEFLTKNKMAEVLDKFKFQTEDDLFAAVGYGEVSAQVVCNRLTEKERREQELERQRQEAEELLNQPAKKESEKMKVRHEGGIVIQGVDNLLIRLSRCCNPVPGDEIVGYITKGRGVSIHRADCPNVQHQEELAQRLIEVEWEDTEHSRKEYAADLEIYGYDRSGLLSDVLQVISSMTKNLVGVEARPSKDKMAQIHVTVKIQNLSHLKTIVDKIKSVPDVYSVRRTNGEGHHHHHH | soluble
14 | MEARTTDLSDLYPEGEALPMVFKSFGGRARFAGRVRTLRVFEDNALVRKVLEEEGAGQVLFVDGGGSLRTALLGGNLARRAWEKGWAGVVVHGAVRDTEELREVPIGLLALAATPKKSAKEGKGEVDVPLKVLGVEVLPGSFLLADEDGLLLLPEPPSGVRSGG | soluble
